{"source": "paper PMC5559466", "target": "T1, His6-Sll0649 (OmpR family response regulator) (Synechocystis sp. PCC 6803) (UniProt P72948)", "T1 sequence": "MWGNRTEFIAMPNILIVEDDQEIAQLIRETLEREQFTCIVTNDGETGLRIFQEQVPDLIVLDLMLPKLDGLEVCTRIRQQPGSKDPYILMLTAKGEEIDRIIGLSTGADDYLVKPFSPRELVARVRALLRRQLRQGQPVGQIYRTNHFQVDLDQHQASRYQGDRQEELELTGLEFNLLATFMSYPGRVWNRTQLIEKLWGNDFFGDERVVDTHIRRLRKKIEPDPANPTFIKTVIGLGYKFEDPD", "test": "EMSA", "conditions": "EMSA: 20 mM Tris-base pH 7.9, 1 mM DTT, 10 mM MgCl2, 0.2 mg/mL BSA, 5% glycerol, 1 mg/mL poly(dI-dC), about 10 ng probe, 20 min at 25 C, 6% native PAGE"}
{"sequence": "AGCCAGTGGCGATAAGTCAGATCCTAGACCCCGACTTTTTTCCAAAATCAGAATAAATACAAAAAAAAGCCCTCTAAAACAATGACCTTGTCCTGAAAAACTGACACAAAAATTTCATACCGTCGTCATAGCCCTGTCATACTCGTCCCCTACATTAATAAATGTCAGCCCAAGCCGTTTCTTATCGCCACTGGCT (double strand) [Pslr1204 EMSA probe]", "values": [{"measurement": "binding", "value": "no binding"}]}
